The DeepSol protein solubility set

Experiment: soluble on expression in E. coli; label from the status in PepcDB or PDB records

Sequence | soluble on expression in E. coli
MAHHHHHHMRLRSPCGVKGIAADALVDLVQSCYPSATVLFTSVANNVAAADNSELRISSSLDAWQAKLHTRRAWRQGLSVDTPGFQRILARRHIVPARSAEAAASSWWALLYAADATNRPRVALPRQPSQSLPPSHIAHPILCCPDAIVYIGGVEVRDVTQVVAPTLVDAVTRVEAPHSTVGAASATHRAERQAPSYCRRRVDWPTVWADKRCAMRGADLLELSLAVPSDLGHRHADVRERVLVSIANPDVTLADLQRQPHAGRRGPLRTSFGFSLPCVQAALPAAVIRAVRVLRRWQRDVAHCIPSTSAFWVSSIGHLLETSVGDAASPLTQWAEACTRQEQELGMSETQMRHLFAIVQPDSDQTSTRVPLPEDATKLLTFLLTSTVLQLACTSPLEAWNGTNYFLPAERFDGTTDAEVLLRTMRSVAGTHLTFPIFSSLYGSPCGAEQGPLSQSSP | not soluble
MAHHHHHHMRRSALRGAARGNDNGAICRRYRDTSLCVVTSLTPSVHGGGSTSVVASSSSLSCPPRPSACYATAMHMSARHRLTNASILSNIKSMANEKDDLTSKLVYLRRRQEDAIAFAVKEKEMLAEKAKRQLAMEEEKLKVEARIEALISEAAQLGGPAAAQRMRDEIAKDKTRYVRSVDAFGDKTVRLQHTFAGLADNRIIHWWEYAYWNYIRYFFTQELLIAKDRFGNKFTVTWQFLKGREEQRRMYRKDSNKKHQPYGALATDERLWERWMRGHRGDPPSVAEEEHLRDYKKQFFGAMVLEDEEVEDALMRLMAHMNRASQTFQELDEDQVYGDAHRVAKPLRETERKPGEEMSARQKQKGATWTLGFARGDLFYNEEETQVMRTEMGHLFRNMEWQELEYKRQVRMNKQQPPHGKPPEGTTDPNTPDGDPMNHYWERTDLGIPYHDAVPDLTTPELERMRIESSQLEDERLAIRKELGLTDLGDIREGREPIKRDHAPFQPPPVSQRWKPKCWEESWGTGSGMKY | not soluble
MAHHHHHHMRRTVVQRVAPWVPPPRHDIKVTMPPPPGGEVGGRFGVSQGYSDRLARTPYWKRMALSTYKLRMMENATRYPMSEHRPGEYDIRYLPTPYPCTIRNRPLLEVGEPRQIPSIRIPVIFLVNLFDEAKGCWFGRRYETVYVERQFMREELMPQRYAIYATPEAYKLLGLPVVNHHTHEEIPKTPREYEKLLERQRYDEERWKYTIEYLFRKYEDGPPELLDRPEDGWDGSEEIALSSVAGAGRDGVVSQRKGPVKQRKARKIKLF | not soluble
MAHHHHHHMRRVRLSPPLLRFPGSLFPKKNLFSKAIPLAIQTCRLFVSYSEPSYYYYYYYHNSCMCEVIRSARDSAERMGFGEGWGVCGASTRRQHRVGLFSSGSSSEHLPCMKGWSGRKDVSLIYAYHTCLLHFLLLHTCV | not soluble
MAHHHHHHMRRYVKPSNIVGANISHPVDIFKMTVEHRVQCGSCHKVRYTRETDCCLSLPIPLDPNLKNSDGNPKQTEEEIFASRPHISLDACLGSLMQATDIDCRCSACGIPVTYCKTTRLRTFPDVLPIFLRRAQFDMETMSVRKLDVFVDVPLELDLEFLRGKGLQSDEVSMPEAREDLPHKPTSSSMKTVDEEALAMLLSMGIEETVARYALLQTGMNAERAVDYVFSRENIAEEAGLAEISTTASESQPVHVLDGPAKYRLHAMISHVGASAKTGHYVCHICDAQTGKWLLFNDEKVAESLNPPFSMAFLYFYKRVGK | soluble
MAHHHHHHMRTPVVGAGVAPLEPAPLEASSAAGEDGGEAGVGDEGTDRERFSKMWMYCLQQMQGHEVGMLMDMMPPDIQELYSDKLSDEYLLDEHDNMDKGVHALRAAQKMVEELTSEQLFHIEEFLAGTDAFNAEANRCHGKAHHPRGDGDNLEEEEEAGGDDDEDLFMHRDEGMGSDEEEWLLEQMIAAGDKTSAAAK | not soluble
MAHHHHHHMRTSAAVLSLFRGQRRLSCTMTAPLATRRFCRSTGDGLQKDWRPLSTTPHQPGPDTPASPSSSKSSANLDACEGALRAAPEGPASSKRGSSFASLALQRGSGEKANRMDRTAGLYKHTIVTETDKAPTGVARSATASSVSTGAGLTAERKKYATIPLRHCGTRAEPGNGSRSASSPPSASNSKREMTAQTEAPKTIKTAARPQDGPMVPDYGPLRATGLWSVEEVLDESKKTVDFRRIDDVESEIIEDHTNAEEALVPYAEEEAWKHKLMFEYKFKKTPKHLTWKEMGEEIECMDCVIELDEHRPEELFTIFFYFTDKKTGTRDLVWSARNDVSYSEGFTDLLAAIGACLGRSDVHRTIRFDDGVGCTRDLTFRKRSRYTSDVYVAFRPPEKYDKFQRKEEKDEYEASMEREGMSTWGYHPSLMDPEFSELDFKDPEGTYEVAISAHGFSFVVLRAIGRLLARPMKDFYRPSQLMRTAKVRTEDEIGFTHALKGWLGVDEQLYPHYTPIEALQDHWLGKDAPFSLCAIVNKLREMNYLKKENPEFQSWLSVRSHDTHLAIRNMGVKLLGVGASTLFVPVSHNATVNRLLPKPQQRRLESRFSLNAVLGLPDETRKLKDFKQITGHDRITDVPTSSTRETATIASPAQDEASVKNSPT | not soluble
MAHHHHHHMSEDESNSVSCSLSLESDGYSDEEYDTNLNKLIENESLNWIFVGGKGGVGKTTTSCSIAVQLSKRRESVLLLSTDPAHNTSDAFNQKFTNQPTLINSFDNLYCMEIDTNYSENTAFKLNKKEMFDNILPELLHSFPGIDEALCFAELMQSIKNMKYSVIVFDTAPTGHTLRLLAFPDLLKKALGYLINIREKLKGTLNVLKNFTNNEMEFDSLYEKINHLNAMSSSIQANFQNPMKTTFVCVCIPEFLSVYETERLIQELTKKNISCYNIVVNQVVFPLDSPNVNLENCKNLLSQIKNEQIQSYFNDLISKTEELEDVYISRRKLQSKYLTQIKNLYSNDFHIVCMPQLKNEIRGLNNISSFSEMLLQSKDIPIYKDNL | not soluble
MAHHHHHHMSGRPEEGLYGNVESQSSNVSQGGRRRTRSEFEGDTDHSSATRIRLEGMYRPQWTMSSTVKDILLEGSTLRTDMKLNEFIRSNLDEEWVVERNGNVIMEAFVQEPDAYVQDQELLRRIINLPAYQALEERKILLEATYKLHHEGVYFLRQWGEHEGKDTVSSHARGKLNGVLTGIEIEEKERREAEEREKARREEEARRDAEEEKARREEQINFNLTLSIKDAIFQGRARVYKMKLNRFLKMELDGRGVADTNRRVLLKEFFKDPTRYVRDAGVLNEIQASDAYLMAKRAVREEMDMEEDIRKLQYKHLRTLLGWSIASAEIRASVREITKGFLDAVLEELRKPTTTIAR | not soluble
MAHHHHHHMSIAASSARKDGPHHPSSGLTGKETLQDARKMEYRASTLEAGGNDMECLQLMETALQIRCKEYGTGSSSPELLKEACDAAERVVMKCNVLGVKLFKEGKYDVATPLFGYAMEMTGEGSFPLRKDDERRRRLRGVTLNNHGCMERHRGHFSTALDYMQQSMQCTGQQSPVAFLNISAVQVQLRLCEEAAHSAVCAIQSLGPNPEDPSLLAVAHHNLAMALELIDPPRAHEEYRLALGLAQNTISRRSEVTRTIESNMQRFVMVLHECRPGNSALTGTNSPRSSCGHTLFVSPRSCSRERSPSGRDAASRTHRVDIFPHPFAVSAKETVAKRSISRPARADAGHPPKRLTSLSPMN | not soluble
MAHHHHHHMSKKNKSFYENDGSGRDTFVNYAGAYWMNPLPAGTFFKSRGHLTQSSVPTENGTSLVMDDSTPYPGRTLFGKSRYGTTILAAGQVATLDAPADSQSGHSAGMGSTSRSTANPLAGTDADAQEFDGEATALEHISFDVSNPERRLRQPGHSTTGLEGTGGGSTYNGVKEPWTAPNAVDSTLLRLAPAYESTCHYHLRTGLFYTEDAAPPHEMTLPDKGVTWGRSRYY | soluble
MAHHHHHHMSLMDCKYHKHHLYADKFWWSPSPETNHMRGDAEFKWKGNELIAYGDYNAHMQHPANFVTSSSSGSSGSGAATSKSAAAAAGSKKGASARPWFRRTVVVRKSQASDTKPLSTASKIAAAGTSK | not soluble
MAHHHHHHMSLPIIRLRTVNSNHATAAYDPVTASCTLYGFLRSVPSRFECDMAMSDFKRGVQAAQGQKCLAKNNANMLNRVFSSVQDRLLRELPKIIPQLARNSSTWRRLLSGAESTSSMSSTPTATRLQDNARSLHNEESTQPSIPSTPLPSAGTGENGNKGNHKNGDHHSSAEEILVEETVSTTSTRFKSPYEQIPPPIHLTASEHKESRATGGMQGEAGERKDASTVVEHRGKGNNLPGKGYRPHPLLLAILERVRSSCSAEENESDREEREFTTIMESREKALRTKLSSAYSMIPPEEKNFKGFLREMEARVAVAQKLFEVQKFEETTIRTTECALKIEVATMRALLHQIVDAVAEAEERHEREGPRSPYYAEECHVMAAIQQALDDLAS | not soluble
MAHHHHHHMSMKKKMTKPFRTVVHLPVEEARGAIVRMIRRHNAVVIVGETGSGKTTQIPQYVWDDLVSREPPEQQGIVGCTQPRRVAAVSIARHVAKQRGGSVGAEVAYAVRFDDTCSRQTKIKYMTDGILLREIQTDPDLSHYRCLLLDEAHERTLHGDVLFGLLKDIVRRRKKTLTIVVMSATLNAEHFSKFWWNAPIGVVHGRLYPVTIFHTVEPQADYVEAAVSTLLQIHEKEEPGDVLCFLTGQEEIEDAKRILERRMKVMPSTLQEFMILTLYSAMPYEQQLRVFEPPLPGKRRIILSTNIAETSITVEGIRYVVDSGVVKAKFFSSKSGMEVLSEVDVSKAQATQRAGRAGRMTAGKCFRLYTAQAFESLAENTVPEIQRSSLISVVLEMKSLRIDRIMDFEFMDAPNPKAVVRAEETLMLLGALDRQGHITRLGQRLIDFPIEPMAAIVLLAGKALGVERDVTIAISMTMTENLFFTSREAKDGADRCKAAFAKSAGDHATLLGIYYAYKRVPKDQRKMWCESNAVNPSQMLKAEDVMTQLGAILNEHSDEELLSTMVRRSPNLAGNGAALHRKRRRDSEKDASGDDETSELLKGQTSGMVKLRDFELIRRALCYGFSLNAAFYNAKIGNYQTVVGQQVVHLHPSSVLFYQRKKPALVVFNSVVRTTRRYMKDVSVVQEEWLRDAASFLRPVA | not soluble
MAHHHHHHMSQLYRGRSYQNILRKLPRNLVVFDGHCLMCQARVRHVLERNFSYFSFIRIMQGVDPVKLEANKMLFCSFDSVEWREVRRNFPHLLNDADGVVLIEKVPSKTASFLSRVRQGQKQRRQQGRTGGMNSSEEKRGLKNFFQTNNFSFPLASSSVTTPRGLAGGFDGVEEDVDIVVSVKYEAVCRIGMKLDRWLLRTLFRCLYYMLPRWMGDRWYDYILRRRQLWGTSEEDAVRYPKRVPGLKERTWKL | not soluble
MAHHHHHHMSSAFLAQLPFVGSSSTLGWQHDDVARSYMEHVLHRARVLLPRRGWRIGLIKEFYPRGATLLGLNVNAGSEVCIRFRVPGKKNEFLPFHEVLCTALHEFTHCVHSRHDRAFWNLYYDLVKECEALEITMIQQGMRLYPAISSTPMSCTGTASQQSRSGREGRTAATASSARGGGRRLGNGGARGGGRGAGGGMSTGSRHVAQTVIKAGRAVSSSSSSPPSSAAFPGEGRRLGGGGFRQYDAPIGFTPTRDALRRILAGAAERRLARTPPLAATVTLGSHPLALSLHNTTFPQRDEGQSEVDDDDAPDCVPHSLSGHEDGGGWNCPRCGFRNDDNVVGSCAFCADCDDEDEGEATWRKRPRLDSDHSPLETPTIVVSLATASKTAPTQQLQQQQLECTAEEHYIVVSDEDDS | soluble
MAHHHHHHMSTSTTHVQKETILSLNYYEIFSLDPSARDVDFGSVHRAYRRFALLFHPDKDPSPAARAAFERVKLAAETLTDPQMRREYDEELLQKLQRSTGTGATSAWQRQQRDVMEEEALAADMILRQKEAATAAKAAAKREEELEKEAAAKQMLHELTNALTTPFKRMEEELVHEWEIDEDLLSMKEKEVESLLQKLREYNEGQGRHGRSVDAHTCGTKRRRSEEETASKV | soluble
